# Measured values published in patent US20190309059A1 (SHANGHAI PHARMAEXPLORER, published 2019).
# What was measured:
# [1] = molecular target: his-labeled human IL-13 (immunogen A) (human) (UniProt P35225); test: FACS blocking, biotin-IL-13 on IL-13Ra1/IL-4Ra HEK293 cells; antibody at 166.67 nM
# [2] = molecular target: his-labeled human IL-13 (immunogen A) (human) (UniProt P35225); test: ELISA, biotin-immunogen A; antibody at 13.33 nM
# [3] = molecular target: cynomolgus IL-13 (purchased from sino biological) (cynomolgus) (UniProt Q0PW92); test: ELISA, cynomolgus IL-13; antibody at 0.004 nM
# [4] = molecular target: his-labeled human IL-13 (immunogen A) (human) (UniProt P35225); test: ELISA, biotin-immunogen A; antibody at 0.02 nM
# [5] = molecular target: his-labeled human IL-13 (immunogen A) (human) (UniProt P35225); test: FACS blocking, biotin-IL-13 on IL-13Ra1/IL-4Ra HEK293 cells; antibody at 1.33 nM
# [6] = molecular target: his-labeled human IL-13 (immunogen A) (human) (UniProt P35225); test: ELISA, biotin-immunogen A; antibody at 0.11 nM
# [7] = molecular target: his-labeled human IL-13 (immunogen A) (human) (UniProt P35225); test: FACS blocking, biotin-IL-13 on IL-13Ra2 HEK293 cells; antibody at 6.67 nM
# [8] = molecular target: his-labeled human IL-13 (immunogen A) (human) (UniProt P35225); test: FACS blocking, biotin-IL-13 on IL-13Ra2 HEK293 cells; antibody at 0.05 nM
# [9] = molecular target: his-labeled human IL-13 (immunogen A) (human) (UniProt P35225); test: FACS blocking, biotin-IL-13 on IL-13Ra1/IL-4Ra HEK293 cells; antibody at 33.33 nM
# [10] = molecular target: his-labeled human IL-13 (immunogen A) (human) (UniProt P35225); test: SPR (Biacore), antibody captured by anti-human Fc, immunogen A as analyte
# [11] = molecular target: his-labeled human IL-13 (immunogen A) (human) (UniProt P35225); test: FACS blocking, biotin-IL-13 on IL-13Ra1/IL-4Ra HEK293 cells; antibody at 0.27 nM
# [12] = molecular target: his-labeled human IL-13 (immunogen A) (human) (UniProt P35225); test: FACS blocking, biotin-IL-13 on IL-13Ra2 HEK293 cells; antibody at 166.67 nM
# [13] = molecular target: cynomolgus IL-13 (purchased from sino biological) (cynomolgus) (UniProt Q0PW92); test: ELISA, cynomolgus IL-13; antibody at 0.53 nM
# [14] = molecular target: his-labeled human IL-13 (immunogen A) (human) (UniProt P35225); test: cell-based or functional assay
# [15] = molecular target: his-labeled human IL-13 (immunogen A) (human) (UniProt P35225); test: FACS blocking, biotin-IL-13 on IL-13Ra1/IL-4Ra HEK293 cells; antibody at 0.05 nM
# [16] = molecular target: his-labeled human IL-13 (immunogen A) (human) (UniProt P35225); test: FACS blocking, biotin-IL-13 on IL-13Ra1/IL-4Ra HEK293 cells; antibody at 0.002 nM
# [17] = molecular target: his-labeled human IL-13 (immunogen A) (human) (UniProt P35225); test: FACS blocking, biotin-IL-13 on IL-13Ra1/IL-4Ra HEK293 cells; antibody at 6.67 nM
# [18] = molecular target: his-labeled human IL-13 (immunogen A) (human) (UniProt P35225); test: FACS blocking, biotin-IL-13 on IL-13Ra2 HEK293 cells; antibody at 33.33 nM
# [19] = molecular target: his-labeled human IL-13 (immunogen A) (human) (UniProt P35225); test: FACS blocking, biotin-IL-13 on IL-13Ra2 HEK293 cells; antibody at 0.27 nM
# [20] = molecular target: cynomolgus IL-13 (purchased from sino biological) (cynomolgus) (UniProt Q0PW92); test: ELISA, cynomolgus IL-13; antibody at 0.021 nM
# [21] = molecular target: his-labeled human IL-13 (immunogen A) (human) (UniProt P35225); test: FACS blocking, biotin-IL-13 on IL-13Ra2 HEK293 cells; antibody at 0.002 nM
# [22] = molecular target: his-labeled human IL-13 (immunogen A) (human) (UniProt P35225); test: FACS blocking, biotin-IL-13 on IL-13Ra1/IL-4Ra HEK293 cells; antibody at 0.01 nM
# [23] = molecular target: his-labeled human IL-13 (immunogen A) (human) (UniProt P35225); test: FACS blocking, biotin-IL-13 on IL-13Ra2 HEK293 cells; antibody at 0.01 nM
# [24] = molecular target: his-labeled human IL-13 (immunogen A) (human) (UniProt P35225); test: ELISA, biotin-immunogen A; antibody at 2.67 nM
# [25] = molecular target: cynomolgus IL-13 (purchased from sino biological) (cynomolgus) (UniProt Q0PW92); test: ELISA, cynomolgus IL-13; antibody at 2.67 nM
# [26] = molecular target: his-labeled human IL-13 (immunogen A) (human) (UniProt P35225); test: FACS blocking, biotin-IL-13 on IL-13Ra2 HEK293 cells; antibody at 1.33 nM
# [27] = molecular target: his-labeled human IL-13R130Q variant (human) (UniProt P35225); test: ELISA, IL-13R130Q variant; antibody at 0.53 nM
# Sequence of his-labeled human IL-13R130Q variant (human) (P35225 other isoform, or with tags, fused parts or gaps mutant): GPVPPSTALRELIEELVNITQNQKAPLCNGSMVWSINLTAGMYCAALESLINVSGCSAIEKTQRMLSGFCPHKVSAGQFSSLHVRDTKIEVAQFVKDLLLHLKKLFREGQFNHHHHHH
# Sequence of cynomolgus IL-13 (purchased from sino biological) (cynomolgus) (Q0PW92 entry or part of it): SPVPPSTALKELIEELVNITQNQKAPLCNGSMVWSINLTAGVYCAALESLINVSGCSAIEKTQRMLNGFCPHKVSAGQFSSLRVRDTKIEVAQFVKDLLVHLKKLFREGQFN
binder,measurement,setting,value
"c28A2E11 (mouse-human chimeric IL-13 antibody) (antibody, V domains shown) VH: EVQLQQSGAELVKPGASVKLSCTASGFNIKDYYMHWVKQRTEQGLEWIGRIDPEDGETKYAPKFHDKATLTADTSSNTAYLQFSSLASEDTAVYYCTRYDYYGPFAYWGQGTLVTVSA VL: QAVVTQESVLTTSPGETVTLTCRSSTGAVTTSNYANWVQEKPDHLFTGLIGGTNNRAPGVPARFSGSLIGDKAALTITGAQTEDEAIYFCALWYINHFIFGSGTKVTVL",mean fluorescence intensity,[1],51.2
same,OD450 nm,[2],2.71
same,OD450 nm,[3],0.073
same,OD450 nm,[4],0.25
same,mean fluorescence intensity,[5],76.6
same,OD450 nm,[6],0.83
same,mean fluorescence intensity,[7],65.7
same,mean fluorescence intensity,[8],97.8
same,mean fluorescence intensity,[9],61.9
same,Kd,[10],7.98 nM
same,koff,[10],0.00438 s⁻¹
same,kon,[10],549000 M⁻¹ s⁻¹
same,mean fluorescence intensity,[11],93
same,mean fluorescence intensity,[12],58
same,OD450 nm,[13],0.54
same,"Periostin (pg/mL), MRCS cells + IL-13 5 ng/mL; antibody at 0.0002 nM",[14],7090 pg/mL
same,"Periostin (pg/mL), MRCS cells + IL-13 5 ng/mL; antibody at 0.001 nM",[14],6350 pg/mL
same,"Periostin (pg/mL), MRCS cells + IL-13 5 ng/mL; antibody at 0.004 nM",[14],5500 pg/mL
same,"Periostin (pg/mL), MRCS cells + IL-13 5 ng/mL; antibody at 0.021 nM",[14],4920 pg/mL
same,"Periostin (pg/mL), MRCS cells + IL-13 5 ng/mL; antibody at 0.11 nM",[14],4130 pg/mL
same,"Periostin (pg/mL), MRCS cells + IL-13 5 ng/mL; antibody at 0.53 nM",[14],1650 pg/mL
same,"Periostin (pg/mL), MRCS cells + IL-13 5 ng/mL; antibody at 2.67 nM",[14],1100 pg/mL
same,"Periostin (pg/mL), MRCS cells + IL-13 5 ng/mL; antibody at 13.3 nM",[14],1160 pg/mL
same,"VCAM-1 fluorescence intensity, HUVEC + IL-13 0.5 ng/mL + TNFα; antibody at 0.0002 nM",[14],379
same,"VCAM-1 fluorescence intensity, HUVEC + IL-13 0.5 ng/mL + TNFα; antibody at 0.001 nM",[14],346
same,"VCAM-1 fluorescence intensity, HUVEC + IL-13 0.5 ng/mL + TNFα; antibody at 0.004 nM",[14],395
same,"VCAM-1 fluorescence intensity, HUVEC + IL-13 0.5 ng/mL + TNFα; antibody at 0.021 nM",[14],404
same,"VCAM-1 fluorescence intensity, HUVEC + IL-13 0.5 ng/mL + TNFα; antibody at 0.11 nM",[14],278
same,"VCAM-1 fluorescence intensity, HUVEC + IL-13 0.5 ng/mL + TNFα; antibody at 0.53 nM",[14],227
same,"VCAM-1 fluorescence intensity, HUVEC + IL-13 0.5 ng/mL + TNFα; antibody at 2.67 nM",[14],224
same,"VCAM-1 fluorescence intensity, HUVEC + IL-13 0.5 ng/mL + TNFα; antibody at 13.3 nM",[14],207
same,mean fluorescence intensity,[15],95.6
same,mean fluorescence intensity,[16],102
same,mean fluorescence intensity,[17],65.2
same,mean fluorescence intensity,[18],64.8
same,mean fluorescence intensity,[19],92.9
same,OD450 nm,[20],0.085
same,mean fluorescence intensity,[21],102
same,mean fluorescence intensity,[22],102
same,mean fluorescence intensity,[23],99.1
same,OD450 nm,[24],2.6
same,OD450 nm,[25],1.34
same,mean fluorescence intensity,[26],77.7
"c35E2C3 (mouse-human chimeric IL-13 antibody) (antibody, V domains shown) VH: EVQLQESGPGLAKPSQTLSLTCSVTGYSITSDYWNWIRKFPGNKLEYMGYISYNGNTYYNPSLKSQISITRDTSKNQLYLQLKSATTEDTATYYCARLAKWTWYFDIWGTGTTVTVSS VL: DIQMNQSPSSLSASLGDTITITCHASQNINVWLSWYQQKPGSLPKLLIYKASDLHTGVPSRFSGSGSGTGFTLTISSLQPEDIATYYCQQGQSYPYTFGGGTKLEIK",mean fluorescence intensity,[1],18.7
same,OD450 nm,[2],2.59
same,OD450 nm,[3],0.061
same,OD450 nm,[4],0.18
same,mean fluorescence intensity,[5],33.1
same,OD450 nm,[6],0.59
same,mean fluorescence intensity,[7],22.2
same,mean fluorescence intensity,[8],90
same,mean fluorescence intensity,[9],19.6
same,Kd,[10],0.863 nM
same,koff,[10],0.00026 s⁻¹
same,kon,[10],300000 M⁻¹ s⁻¹
same,mean fluorescence intensity,[11],81.5
same,mean fluorescence intensity,[12],19.3
same,OD450 nm,[13],0.59
same,"Periostin (pg/mL), MRCS cells + IL-13 5 ng/mL; antibody at 0.0002 nM",[14],7100 pg/mL
same,"Periostin (pg/mL), MRCS cells + IL-13 5 ng/mL; antibody at 0.001 nM",[14],6020 pg/mL
same,"Periostin (pg/mL), MRCS cells + IL-13 5 ng/mL; antibody at 0.004 nM",[14],4870 pg/mL
same,"Periostin (pg/mL), MRCS cells + IL-13 5 ng/mL; antibody at 0.021 nM",[14],4480 pg/mL
same,"Periostin (pg/mL), MRCS cells + IL-13 5 ng/mL; antibody at 0.11 nM",[14],4360 pg/mL
same,"Periostin (pg/mL), MRCS cells + IL-13 5 ng/mL; antibody at 0.53 nM",[14],4460 pg/mL
same,"Periostin (pg/mL), MRCS cells + IL-13 5 ng/mL; antibody at 2.67 nM",[14],2850 pg/mL
same,"Periostin (pg/mL), MRCS cells + IL-13 5 ng/mL; antibody at 13.3 nM",[14],1350 pg/mL
same,"TARC (pg/mL), A549 cells + IL-13 + TNFα; antibody at 0.001 nM",[14],3200 pg/mL
same,"TARC (pg/mL), A549 cells + IL-13 + TNFα; antibody at 0.004 nM",[14],3150 pg/mL
same,"TARC (pg/mL), A549 cells + IL-13 + TNFα; antibody at 0.021 nM",[14],3040 pg/mL
same,"TARC (pg/mL), A549 cells + IL-13 + TNFα; antibody at 0.11 nM",[14],2610 pg/mL
same,"TARC (pg/mL), A549 cells + IL-13 + TNFα; antibody at 0.53 nM",[14],2370 pg/mL
same,"TARC (pg/mL), A549 cells + IL-13 + TNFα; antibody at 2.67 nM",[14],1090 pg/mL
same,"TARC (pg/mL), A549 cells + IL-13 + TNFα; antibody at 13.3 nM",[14],227 pg/mL
same,"TARC (pg/mL), A549 cells + IL-13 + TNFα; antibody at 66.7 nM",[14],54 pg/mL
same,"VCAM-1 fluorescence intensity, HUVEC + IL-13 0.5 ng/mL + TNFα; antibody at 0.0002 nM",[14],408
same,"VCAM-1 fluorescence intensity, HUVEC + IL-13 0.5 ng/mL + TNFα; antibody at 0.001 nM",[14],402
same,"VCAM-1 fluorescence intensity, HUVEC + IL-13 0.5 ng/mL + TNFα; antibody at 0.004 nM",[14],452
same,"VCAM-1 fluorescence intensity, HUVEC + IL-13 0.5 ng/mL + TNFα; antibody at 0.021 nM",[14],408
same,"VCAM-1 fluorescence intensity, HUVEC + IL-13 0.5 ng/mL + TNFα; antibody at 0.11 nM",[14],313
same,"VCAM-1 fluorescence intensity, HUVEC + IL-13 0.5 ng/mL + TNFα; antibody at 0.53 nM",[14],299
same,"VCAM-1 fluorescence intensity, HUVEC + IL-13 0.5 ng/mL + TNFα; antibody at 2.67 nM",[14],238
same,"VCAM-1 fluorescence intensity, HUVEC + IL-13 0.5 ng/mL + TNFα; antibody at 13.3 nM",[14],165
same,mean fluorescence intensity,[15],96.7
same,mean fluorescence intensity,[16],102
same,OD450 nm,[27],2.4
same,mean fluorescence intensity,[17],19.5
same,mean fluorescence intensity,[18],20.3
same,mean fluorescence intensity,[19],63.8
same,OD450 nm,[20],0.136
same,mean fluorescence intensity,[21],99.1
same,mean fluorescence intensity,[22],96.8
same,mean fluorescence intensity,[23],98.1
same,OD450 nm,[24],2.4
same,OD450 nm,[25],1.63
same,mean fluorescence intensity,[26],29
